From US20160251436A1 (PD 1 ACQUISITION GROUP, published 2016) come the findings set out here.

For experiment [1], the target named is human Programmed Death-1 (PD-1) expressed on the cell surface (human) (UniProt Q15116). Briefly: flow cytometry blocking assay: HEK293 cells expressing PD-1 incubated with 10 µg/ml isotype control, washed, stained with PD-L1-Ig Alexa-488; negative control of blocking.
Experiment [2] has the same target. Briefly: cell-based or functional assay.
The target in experiment [3] is recombinant soluble extracellular domain (ECD) of PD-1 (R&D Systems) (UniProt Q15116). Briefly: ELISA, PD-1 ECD coated on the plate, antibody titrated from about 0.003 to about 13 nM, OD 450 nm.
Sequence of recombinant soluble extracellular domain (ECD) of PD-1 (R&D Systems) (UniProt Q15116) (Q15116 25-170): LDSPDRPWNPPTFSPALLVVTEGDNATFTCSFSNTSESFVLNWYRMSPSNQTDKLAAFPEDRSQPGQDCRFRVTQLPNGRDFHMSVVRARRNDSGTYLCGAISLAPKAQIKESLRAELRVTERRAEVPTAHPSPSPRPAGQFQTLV
For experiment [4], the target named is human Programmed Death-1 (PD-1) expressed on the cell surface (human) (UniProt Q15116). The experiment in a line: flow cytometry blocking assay: HEK293 cells expressing PD-1 incubated with 10 µg/ml antibody, washed, stained with PD-L1-Ig Alexa-488 as the blocked ligand.
Experiment [5] deals with T1, human Programmed Death-1 (PD-1) expressed on the cell surface (human, UniProt Q15116 25-288). The experiment in a line: cell-based or functional assay.
T1 sequence (Q15116 25-288): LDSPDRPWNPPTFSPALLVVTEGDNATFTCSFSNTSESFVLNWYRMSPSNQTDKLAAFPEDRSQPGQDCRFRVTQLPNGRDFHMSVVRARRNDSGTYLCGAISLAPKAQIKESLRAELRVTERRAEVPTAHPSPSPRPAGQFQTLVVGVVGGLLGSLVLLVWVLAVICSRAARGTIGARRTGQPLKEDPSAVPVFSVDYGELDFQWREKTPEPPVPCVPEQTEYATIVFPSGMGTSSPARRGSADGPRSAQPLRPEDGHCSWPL
For experiment [6], the target named is T2, soluble extracellular domain of human PD-1 (human, UniProt Q15116 25-170).
T2 construct: extracellular domain
T2 sequence (Q15116 25-170): as the sequence (Q15116 25-170) above
Briefly: BLI (ForteBio Octet Red), antibody on the biosensor, soluble PD-1 ECD as analyte. The protocol: Biophysical characteristics of certain anti-PD-1 antibodies were analyzed by biolayer interferometry (BLI), using the ForteBio Octet Red system (Pall Corporation, Menlo Park, Calif.). The antibodies were immobilized on BLI biosensors and then incubated with the soluble extracellular domain of human PD-1. Using standard biophysics methods, apparent on-rates and off-rates were then inferred for PD-1 with anti-PD-1 antibodies.

For experiment [7], the target named is T3, recombinant soluble extracellular domain (ECD) of ICOS (inducible T-cell costimulator) (R&D Systems) (UniProt Q9Y6W8 21-140, limits assumed).
T3 construct: extracellular domain
T3 sequence (looked up): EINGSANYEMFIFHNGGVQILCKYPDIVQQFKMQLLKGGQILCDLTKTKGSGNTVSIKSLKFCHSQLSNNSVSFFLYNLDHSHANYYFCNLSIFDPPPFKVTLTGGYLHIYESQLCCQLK
The experiment in a line: ELISA, ICOS ECD coated on the plate, OD 450 nm; anti-ICOS as positive control. The protocol:
(§1) To assess selectivity of the anti-PD-1 antibodies, ELISA was used to generate dose response curves for binding of the anti-PD-1 antibodies to several immunomodulatory cell surface proteins. Recombinant soluble extracellular domains (ECDs) of ICOS (inducible T-cell costimulator), PD-1, CD28 or CTLA4 (R&D Systems, Minneapolis, Minn.) were coated onto ELISA assay plates. Binding of each anti-PD-1 antibody and each control antibody to each target protein was then assessed over a range of antibody concentrations (FIGS. 9A-9D).

Experiment [8] deals with T4, recombinant soluble extracellular domain (ECD) of CD28 (R&D Systems) (UniProt P10747 19-152, limits assumed).
T4 construct: extracellular domain
Briefly: ELISA, CD28 ECD coated on the plate, OD 450 nm; anti-CD28 as positive control. The procedure: as §1

For experiment [9], the target named is T5, recombinant soluble extracellular domain (ECD) of CTLA4 (R&D Systems) (UniProt P16410 36-161, limits assumed).
T5 construct: extracellular domain
T5 sequence (P16410 36-161 limits assumed): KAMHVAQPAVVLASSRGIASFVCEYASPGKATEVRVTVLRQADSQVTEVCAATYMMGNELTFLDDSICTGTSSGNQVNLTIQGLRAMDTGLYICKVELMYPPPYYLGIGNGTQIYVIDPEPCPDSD
The experiment in a line: ELISA, CTLA4 ECD coated on the plate, OD 450 nm; anti-CTLA4 as positive control. The protocol: as §1

In experiment [10] the target is T6, recombinant soluble extracellular domain (ECD) of PD-1 (R&D Systems) (UniProt Q15116 25-170).
T6 construct: extracellular domain; also called PD-1 ECD
T6 sequence (Q15116 25-170): as the sequence (Q15116 25-170) above
The experiment in a line: ELISA, PD-1 ECD coated on the plate, antibody titrated from about 0.003 to about 13 nM, OD 450 nm. The protocol: as §1

Experiment [11] has as its target T1, human Programmed Death-1 (PD-1) …. Briefly: cell-based or functional assay. The source holds these as a separate data set.
Experiment [12] has the same target. Briefly: cell-based or functional assay. The source holds these as a separate data set.
For experiment [13] the target is unchanged. Briefly: cell-based or functional assay. The source holds these as a separate data set.

Sequence of human Programmed Death-1 (PD-1) expressed on the cell surface (human) (Q15116 25-288): as the sequence (Q15116 25-288) above

In experiment [1], isotype control mouse IgG1 (antibody) gave a percent of cells in gate Alexa Fluor 488-A+ (PD-L1-Ig staining after the antibody) of 37.6% and a percent of cells in gate Alexa Fluor 488-A- (PD-L1-Ig staining after the antibody) of 62.4%.

B1: mouse anti-PD-1 cl. EH12.2H7 (antibody, from another filing, V domains shown)
VH: QVQLQQSGAELAKPGASVQMSCKASGYSFTSSWIHWVKQRPGQGLEWIGYIYPSTGFTEYNQKFKDKATLTADKSSSTAYMQLSSLTSEDSAVYYCARWRDSSGYHAMDYWGQGTSVTVSS
VL: DIVLTQSPASLTVSLGQRATISCRASQSVSTSGYSYMHWYQQKPGQPPKLLIKFGSNLESGIPARFSGSGSGTDFTLNIHPVEEEDTATYYCQHSWEIPYTFGGGTKLEIK
In [2], B1 had a CD4 IFNγ % positive of 12.8 % positive, a CD8 IFNγ % positive of 19.5 % positive and a CD8 TNFα % positive of 14.1 % positive. Besides, the EC50 (read off the curve) in [3] was determined as 0.02 nM. Besides, in experiment [4], the percent of cells in gate Alexa Fluor 488-A+ (PD-L1-Ig staining after the antibody) is 10.3% and the percent of cells in gate Alexa Fluor 488-A- (PD-L1-Ig staining after the antibody) came to 89.7%.

B2: 100246_A10VH1_100247_A10VK3 (antibody, V domains shown)
VH: EVQLQESGPGLVKPSQSLSLTCTVTGYSITSDYAWNWIRQFPGNKLEWMGYITYSGSPTYNPSLKSQFSITRDTSKNQFFLQLNSLTTEDTATYYCARGLGGHYFDYWGQGTTLTVSS
VL: DIVLTQSPDTLSVTPGDRVSLSCRASQSISDYLHWYQQKSHESPRLLIKYASQSISGIPSRFSGSGSGSDFTLSINSVEPEDVGVYYCQNGHSYPYTFGGGTKLELK
notes: Mouse variable regions; cloned into pFUSE-CHIg-mG1 (murine IgG1 Fc), expressed in HEK293
B2: in experiment [5], the “CD4 IFNγ % positive” value came out at 20.3 % positive, the “CD8 IFNγ % positive” value is 26.2 % positive and the “CD8 TNFα % positive” value was found to be 14.9 % positive. In experiment [6], this molecule registered a Kd of 76.4 nM, a dissociation rate constant (koff) of 0.0123 s⁻¹ and a kon of 161000 M⁻¹ s⁻¹. Moreover, the binding result in experiment [7] is listed as “no binding (tested: about 13 nM)”. The binding result in experiment [8] is given as “no binding (tested: about 13 nM)”. For the same molecule, the binding result in experiment [9] is reported as “no binding (tested: about 13 nM)”. Also, the “EC50 (read off the curve)” value in experiment [10] was around 0.04 nM.

B3: 244C8-2 (100244_C8_HC1 + 100245_C8_LC3) (antibody, V domains shown)
VH: QVQLVQSGAEVKKPGASVKVSCKASGYTFTSYWMHWVRQAPGQGLEWMGMIDPSNSETSLNQKFQGRVTMTVDKSTNTVYMELSSLRSEDTAVYYCARSRGNYAYEMDYWGQGTLVTVSS
VL: DIVLTQSPGTLSLSPGEKVTLSCRASSSVSSNYLYWYQQKPGQAPRLVIYSTSNLATGIPDRFSGSGSGTDYTLTISRLEPEDFAVYFCHQWSSYPPTFGQGTKVEIK
Turning to B3, the “Fold Induction IFN-γ (relative to isotype control; NSCLC biopsy cells, 20 µg/mL)” value in [11] is 7.76 fold. The “Fold Induction IFN-γ (normalized to nivolumab; 20 µg/mL total antibody)” value in experiment [12] amounted to 1.77 fold. Also, in [13], the “Fold Induction IFN-γ (relative to anti-CD3 + anti-CD28 only; antibody at 5 ug/mL)” value turned out to be 2.66 fold and the “Fold Induction IFN-γ (relative to anti-CD3 + anti-CD28 only; antibody at 10 ug/mL)” value was 2.81 fold.

B4: 100244_C8VH3_100245_C8VK5 (antibody, V domains shown)
VH: EVQLQESGPELVRPGASVKMSCKASGYTFTSYWMHWVKQRPGQGLEWIGMIDPSNSETSLNQKFKDKATLNVDKSTNTAYMQLSSLTSEDSAVYYCARSRGNYAYEMDYWGQGTSVTVSS
VL: DIVITQTTAIMSASPGEKVTLTCSASSSVSSNYLYWYQQRPGSSPKLWIYSTSNLASGVPARFSGSGSGTSYSLTISSMEAEDAASYFCHQWSSYPPTFGSGTKLEIK
notes: as for B2
On to B4, for which, in [5], the “CD4 IFNγ % positive” value came out at 9.64 % positive, the “CD8 IFNγ % positive” value came to 19.9 % positive and the “CD8 TNFα % positive” value came out at 14.5 % positive. In [6], this molecule registered a Kd of 15.1 nM, a koff of 0.00322 s⁻¹ and a kon of 213000 M⁻¹ s⁻¹. The binding result in experiment [7] is “no binding (tested: about 13 nM)”. Moreover, the binding result in experiment [8] is “no binding (tested: about 13 nM)”. For the same molecule, in experiment [9], the binding result is “no binding (tested: about 13 nM)”. The “EC50 (read off the curve)” value in experiment [10] is around 0.03 nM.
